The sequences below were run on MS2 coat protein (assay: apparent KD of MS2 coat protein; higher = weaker reporter binding). Settings: Eterna round: R107; input ligand: theophylline 20 uM.
In short: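 Apparent KD was obtained for each design as the median of normalised binding-curve fits over its clusters. RNA switches transcribed on-chip from Illumina sequencing clusters were titrated with SNAP-549-labelled MS2 coat protein (twofold steps, 0.7 or 1.5 nM to 3 µM) in 100 mM Tris-HCl pH 7.5, 80 mM KCl, 4 mM MgCl2, without or with constant ligand.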

Sequence	apparent KD of MS2 coat protein [nM]
AAUAAUAAGGCGGCCGCCACUAAACAUGAGGAUCACCCAUGUCUCGAGCGCAUGCAUAAGGGAUGUAGGACCGGGCCAAUAAUAA [Exclusion - Tryptophan B (Freestyle 2)]	32.6
CCAUACGUAACUGAUACCAGUGUACUGACAUGAGGAUCACCCAUGUUGGGUUUUGUUGUACACCCUUGGCAGCAGAAUCGUAUGG [AstrosExyTheB#19]	65.1
AAAUAAACAUCGGCCGCCACUUACUCAUGAGGUAACAACAUGAGGAUCACCCAUGUUUGAGGAUCAAGGACCGGGAUGUAAUAAA [AstrosSSTryB#1]	33.6
ACACGAAGCUGAAGGAGCGUGGUACAAGUUUUUACAUGAGGAUCACCCAUGUUUCGUCAAUCACAGGUAGGUCGCAGAUGCGUGA [#08 Same State - Arginine B]	42.5
ACACAUGAGGAUCACCCAUGUCCAAUAGAUACCAGUGAUACAGUGCACCCUUGGCAGCUGUUACUGAGUAAUGGUUCCCUCGGAA [Same State Theophylline A GF2]	48.6
UUAUUUAUAAUGGAUACCAGUUUAAUGGCCGCAAAUCCUGACAUGAGGAUCACCCAUGUAAGCCCUUGGCAGCUGUUAUGGGUUU [XTheo B #24]	47.3
UCAUGCAGGUCGGCCGCCACUACACACAUGAGGAUCACCCAUGUAGUUACUGGGUGAAGUGGCAGUAGGACCGGGACCUGCAUAU [Brourdmod08]	664
AUACAUGAGGAUCACCCAUGUCAUUCAGAAGGAGCGUCAUUUUAGACAGGUAGGUCGCUGUUAUUUUUAUUAUUCUUUAUGUUUU [JR_Nu_ExcArginiA_Sub025]	27.2
UGUAUGUGAUCUGAUACCAGAGUUGAUAAUCUGAGGAUCACCCUGGUAAGGCGAAAGCCGCUCCCUUGGCAGCAGAUCGCAUACU	969
UUCUGGUCCCGUGAUACCAGAGACAUGAGGAUCACCCAUGUACAUGAGGAUCACCCAUGUUUCCCUUGGCAGCACUGCAGUGAGC [Exclusion Theophylline B GF 15]	160
AAAGAUCGGAAACGAUCGGCGGCUUGGGCGCGAGGACCGGUACGGCCGCCACUCGGGAAACAUGAGGAUCACCCAUGUUGCUUCU [ETA NP+V+V2 #16]	12.5
CACAUGAGGAUCACCCAUGUCUGAACUGAAGGAGCGCUAAAUAAGGCAGGUAGGUCGCGGAAUCCUGUGUGCAUAUGCACACGGG [9.X]	30.5
AGUACUCGAACGGAUACCAGCCGGACAUGAGGAUCACCCAUGUCCUACCAUGUUUCGGUUGGCCCUUGGCAGCCGUUCGUGUACA [Omei Theo B SS A v1]	428
UAUAACAUGAGGAUCACCCAUGUAAGUGAUACCAGAUAAAUAAUAGUCCCUUGGCAGCAUAUUGGGAAAAUGUAUAAUAUAUAUU [Same State - Theophylline A (Freestyle 1)]	72.1
ACAUGAACAUGAGGAUCACCCAUGUAUGAUACCAGAAAAGAAGAGUUCCCUUGGCAGCGUACAACACAUGAGGAUCACCCAUGUG [kvcmullin]	26.7
GAUAACAUGAGGAUCACCCAUGUGGCGUCGCGAGGACCGGUACGGCCGCCACUCGGCAGUUCAACUCGAAUAUAGUGAUCGAAGU [theeternabot_sameState_MS2_Trp_A_16]	182
UACCGAUGAAGAAGGAGCGUAUGCUUAUAUGAUGGUAACAUGAGGAUCACCCAUGUCAGUAUACAGGUAGGUCGCUUCAUCGGUA [EAB NP+V+V2 #22]	68.6
AAAGGACAUGAGGAUCACCCAUGUCUCGAUACCAGCCGAUCAUCAGGCCCUUGGCAGCGAGACAAGGGUCAUGGAUCGCGGUUCU [Beerusmage]	17.4
ACAUGAACAUGAGGAUCACCCAUGUGGGAUACCAGCGUGUAUGAGCGCCCUUGGCAGCUCAUGACAUGAGGAUCACCCAUGUUGG [Exclusion Theophylline A 4]	242

Same assay, conditions: Eterna round: R107; input ligand: theophylline 2 mM

Sequence	apparent KD of MS2 coat protein [nM]
UACGCUAGGGCGGCCGCCACUCGGACAUGAGGAUCACCCAUGUCGAUUAAUUGAAGGACAUGAAUGAGGACCGGGCUAAGCUAGG [Same State - Tryptophan B / B]	27.1
UGUGCAUGAGUUGGAAAAGCUCAUGGGCAUCGAGGACCGGUACGGCCGCCACUCGGCUGUACAUGAGGAUCACCCAUGUCAGGGU [#1 Same State - Tryptophan A Attempt #23 (HarryS)]	170
GAACAUAUGGAUACUAUUAUGAGCACAGAAGGAGCGAGCGGAAGCUCAGGUAGGUCGCUGGGUAACAUGAGGAUCACCCAUGUUG [XArg-A sub1]	25.6
AAUAUUAUGUCGGCCGCCACUUCCCACAAGAGGUGCCUGCACCCACAUGAGGAUCACCCAUGUCGAAGGACCGGGACGCUCAAUU [theeternabot_sameState_MS2_Trp_B_35]	21.6
GGCUAGGUCUCGGCCGCCACUGCUACAUGAGGAUCACCCAUGUACCUGGGCGGUCGCUCCCUCGGCAGGACCGGGAGACAUUCGU [Onarbeisan]	12.5
UUGUUGUUUGGAAGGAGCGUGGAUGAGUUAGAACAUGAGGAUCACCCAUGUUGGAUGAUACCACAGGUAGGUCGCCGGGUGGUGG [11.Z]	24.5
AACAUGAGGAUCACCCAUGUCCUCGUGAUUCGAGGACCGGUACGGCCGCCACUCGGUCCUCGCGAGGUGGAGUCAAAGACUCCAA [Omei Trp A SS A v3]	425
GCACGACAUGAGGAUCACCCAUGUGCAGAUACCAGUAAUGUAUGUUACCCUUGGCAGCUGAGUAGGUCUGGAGGGCUAUAGGUUU [Same State Theophylline A GF13]	15.6
CUCCCGUGAGCGGCCGCCACUGGAGGCCUCGCGCGACAUGAGGAUCACCCAUGUUGGCCCGGCCUCAGGACCGGGUUCGCGCGAG [Same State - Tryptophan B Attempt #5 (HarryS)]	9.89
AAACGUUGCUGCGAUACCAGACAUGAGGAUCACCCAUGUACCGAGGUACCCGAAAGGAAUGUCCCUUGGCAGCGCAGCAACGAAA [MAT - Exclusion Theophlline B - Mod of Eli - D24]	124
GGUUGGUUUAUAUAUAGAUUGAUUACUGAAGGAGCGGGAAAUAACCCAGGUAGGUCGCAGAGAUCCACAUGAGGAUCACCCAUGU [!0.I]	53
ACAUGAGGAUCACCCAUGUGCAUCACCCGACGAGGACCGGUACGGCCGCCACUCGGGUAUAUAUUUGCAUCGGGUGAUUUUACGU [#25 Tryptophan A Same State]	61.6
AGUCUUAAUGGAAGGAGCGCAGUCAUAACAUGAGGAUCACCCAUGUCGAGGUGAGGGUCAUUGCAGGUAGGUCGCCAUACUAGAA [Same State - Arginine B (Freestyle 1)]	186
CUUACGGGAAACCGACCCAAACAACGGGAAGGAGCGCCAAACAAGGCAGGUAGGUCGCCCACAUGAGGAUCACCCAUGUGUUGGG [Exclusion Arginine A GF 26]	42.3
UUAUUUAUAGGGUAUAUCAGAUUAACUGAAGGAGCGUGGUAAUUCACAGGUAGGUCGCAGAUGGAACAUGAGGAUCACCCAUGUU [JR_ExcArginiA_Sub015]	22.2
AAUAAUAAGGCGGCCGCCACUAAACAUGAGGAUCACCCAUGUCUCGAGCGCAUGCAUAAGGGAUGUAGGACCGGGCCAAUAAUAA [Exclusion - Tryptophan B (Freestyle 2)]	27.9
AAAUAAACAUCGGCCGCCACUUACUCAUGAGGUAACAACAUGAGGAUCACCCAUGUUUGAGGAUCAAGGACCGGGAUGUAAUAAA [AstrosSSTryB#1]	32.9
ACACGAAGCUGAAGGAGCGUGGUACAAGUUUUUACAUGAGGAUCACCCAUGUUUCGUCAAUCACAGGUAGGUCGCAGAUGCGUGA [#08 Same State - Arginine B]	36.6
UCAUGCAGGUCGGCCGCCACUACACACAUGAGGAUCACCCAUGUAGUUACUGGGUGAAGUGGCAGUAGGACCGGGACCUGCAUAU [Brourdmod08]	696
AUACAUGAGGAUCACCCAUGUCAUUCAGAAGGAGCGUCAUUUUAGACAGGUAGGUCGCUGUUAUUUUUAUUAUUCUUUAUGUUUU [JR_Nu_ExcArginiA_Sub025]	21.3

Source: the supplement of paper PMC9170038
